Reference: patent US20240124575A1 (SIMCERE ZAIMING PHARMACEUTICAL, published 2024)
Where two headings read alike, the source gives them in different places.

B1: C33B904 hIgG1 (antibody, V domains shown)
VH: EVQLVESGGGLVQPGRSLRLSCAASGFTFDDYAMHWVRQAPGKGLEWVSGIGWSGGSIVYADSVKGRFTISRDNAKNSLYLQMNSLRAEDTALYYCAKDSPYGDFFDYWGQGTLVTVSS
VL: DIVMTQSPDSLAVSLGERATINCKSSQTVFYSSNNKNYLAWYQQKPGQPPKLLISWASTRKSGVPDRFSGSGSGTDFTLTVSSLQAEDVAVYYCQHYYSTPYTFGQGTKLEIKR
notes: intact human IgG1; variable regions from US20190382481A1; also called C33B3904; C331B904
B2: C33B904 (antibody, human IgG1, kappa, V domains shown)
VH: B1 VH
VL: B1 VL
notes: control antibody, intact human IgG1 form; variable regions from US20190382481A1; also called C33B904 hIgG1; C331B904

Assays:
monkey CD33-His protein = target: T1, monkey CD33-His protein (monkey); assay: ELISA on coated monkey CD33-his
T1 construct: also called monkey CD33 protein

human CD33-C2-his [1] = target: T2, human CD33-C2-his (human, UniProt P20138 136-260); assay: ELISA on coated human CD33-C2-his
T2 construct: expressed in HEK293E; also called hCD33-C2-his; human CD33 protein C2-domain; not shown: His tag

human CD33-C2-his [2] = target: T2, human CD33-C2-his; assay: ELISA on coated human CD33-C2-his; remark: listed apart in the source
human CD33-C2-his [3] = target: T2, human CD33-C2-his; assay: ELISA on coated human CD33-C2-his; remark: listed apart in the source
Text: Plates were coated with human CD33-V-his (membrane distal end) and human CD33-C2-his (membrane proximal end), respectively, according to the ELISA method in Example 8. The VHH humanized antibodies were classified based on the membrane distal end and the membrane proximal end, as shown in FIGS. 20A-20J and Table 44, which allowed the classification of the VHH humanized antibodies into the following classes: […]

[4] = target: T3, human CD33-His (extracellular domain Asp 18-His 259) (human, UniProt P20138 18-259); assay: competitive ELISA vs coated S006-NB146-17 2ug/mL; soluble 25ug/ml
T3 construct: range 18-259; bought protein; also called hCD33-his; human CD33 protein; not shown: His tag
Protocol: (§1) VHH antibodies and control antibodies with known epitopes were subjected to epitope classification with competitive ELISA. ELISA plates were coated with 2 μg/mL antibodies according to the method in Example 5.1; the human CD33-his protein was subjected to a gradient dilution from 30 μg/mL, and EC80 values (Tables 26-27) were calculated. ELISA plates were coated with 2 μg/mL antibodies; after 25 µg/mL of antibodies to be tested were added, a human CD33-his protein having an EC80 concentration corresponding to each of the antibodies to be tested was then added for incubation for 2 h. The plates were washed 5 times with PBS, then HRP-labeled anti-His antibodies (purchased from GenScript, Cat. No. A00612) were added for incubation for 1 h, and the plates were washed 5 times. A TMB substrate was added at 50 μL/well and incubated at room temperature for 10 min, then a stop solution (1.0 M HCl) was added at 50 μL/well. OD_{450 nm} values were read using an ELISA plate reader (Insight, purchased from PerkinElmer), and the competition rate between the antibodies was calculated according to the OD_{450 nm} values using a formula. The results are shown in FIGS. 12A-12B, the higher the value of the competition rate, the closer the epitopes to which two antibodies bind.

[5] = target: T3, human CD33-His (extracellular domain …); assay: competitive ELISA vs coated S006-NB146-60 2ug/mL; soluble 25ug/ml
Protocol: as §1

[6] = target: T3, human CD33-His (extracellular domain …); assay: competitive ELISA vs coated S006-NB146-181 3ug/mL; soluble 25ug/ml
human CD33-his protein [7] = target: T4, human CD33-his protein (human, UniProt P20138 18-259); assay: competition ELISA, coated human CD33-his, vs Biotin-C33B904 at EC80; antibody 500 nM
T4 construct: range 18-259; bought protein; also called hCD33-his; recombinant human CD33-his; not shown: His tag
Protocol: (§2) The plate was sealed with a plastic film and incubated at 4° C. overnight, washed twice with PBS the next day, and a blocking solution [PBS+2% (w/w) BSA] was added for blocking at room temperature for 2 h. The blocking solution was discarded, and VHH-Fc antibody or negative control antibody serially diluted from 100 nM was added at 50 μL/well. After incubation at 37° C. for 2 h, the plate was washed 3 times with PBS. A secondary antibody labeled with HRP (horseradish peroxidase) (purchased from Sigma, Cat. No. A0170) was added. After incubation for 1 h at 37° C., the plate was washed 5 times with PBS. A TMB substrate was added at 50 μL/well. After incubation at room temperature for 10 min, a stop solution (1.0 N HCl) was added at 50 μL/well. The OD450 nm values were read on an ELISA plate reader (Multimode Plate Reader, EnSight, purchased from Perkin Elmer). The assay results for the binding of the VHH-Fc to hCD33-his by ELISA are shown in FIGS. 7A and 7B and Tables 11 and 12. […] The IgG control was hIgG1, and the data in the table are OD450 nm values.
(§3) ELISA plates were coated with 2 μg/mL human CD33-his protein according to the method in Example 5.1; the Biotin-C331B904 antibody was subjected to a gradient dilution from 15 μg/mL, and EC80 values (0.18 μg/mL) were calculated. […] OD_{450 nm} values were read using an ELISA plate reader (Insight, purchased from PerkinElmer). […]

human CD33-his protein [8] = target: T4, human CD33-his protein; assay: competition ELISA, coated human CD33-his, vs Biotin-C33B904 at EC80; antibody 0.98 nM
Protocol: as §2, §3

human CD33-his protein [9] = target: T4, human CD33-his protein; assay: competition ELISA, coated human CD33-his, vs Biotin-C33B904 at EC80; antibody 3.91 nM
Protocol: as §2, §3

T2 sequence (P20138 other isoform, or with tags, fused parts or gaps limits assumed): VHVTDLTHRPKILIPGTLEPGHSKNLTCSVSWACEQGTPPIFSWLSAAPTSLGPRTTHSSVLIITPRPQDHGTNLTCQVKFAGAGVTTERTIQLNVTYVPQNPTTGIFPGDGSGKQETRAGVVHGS
T3 sequence (P20138 18-259 limits assumed): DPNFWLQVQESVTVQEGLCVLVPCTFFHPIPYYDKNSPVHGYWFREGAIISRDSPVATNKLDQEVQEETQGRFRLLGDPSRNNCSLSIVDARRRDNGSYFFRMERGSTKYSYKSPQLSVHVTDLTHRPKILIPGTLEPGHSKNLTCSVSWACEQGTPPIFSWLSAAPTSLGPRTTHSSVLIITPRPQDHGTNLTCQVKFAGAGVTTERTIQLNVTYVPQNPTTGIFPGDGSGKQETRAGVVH
T4 sequence (P20138 18-259 limits assumed): as above

EC50 (read off the curve) (monkey CD33-His protein) [nM] | EC50 (read off the curve) (human CD33-C2-his [1]) [nM] | EC50 (read off the curve) (human CD33-C2-his [2]) [nM] | EC50 (read off the curve) (human CD33-C2-his [3]) [nM] | inhibition rate [4] [%] | inhibition rate [5] [%] | inhibition rate [6] [%] | OD450 (Biotin-C33B904 signal) (human CD33-his protein [7]) | OD450 (Biotin-C33B904 signal) (human CD33-his protein [8]) | OD450 (Biotin-C33B904 signal) (human CD33-his protein [9]) | Binder
~0.2 | ~0.4 | ~0.3 | ~0.1 | 1 | 8 | 100 | – | – | – | B1
– | – | – | – | – | – | – | 0.08 | 2.31 | 2.25 | B2
